Laboratory results published in the supplement of paper PMC9170038.

Key:
MS2 coat protein [1] = test: apparent KD of MS2 coat protein; designed switch direction (-1 OFF switch, 1 ON switch): -1; higher = weaker reporter binding; details: Eterna round: R98
Procedure: (§1)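 RNA-MaP: designed FMN/MS2 RNA switches (84 nt design region) are transcribed on-chip within common flanks and titrated with SNAP-549-labelled MS2 coat protein (about 1-3000 nM) in 100 mM Tris pH 7.5, 80 mM KCl, 4 mM MgCl2, without or with 200 uM FMN. Median apparent KD per design; activation ratio = KD,OFF / KD,ON.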

MS2 coat protein [2] = test: apparent KD of MS2 coat protein; designed switch direction (-1 OFF switch, 1 ON switch): 1; higher = weaker reporter binding; details: Eterna round: R98
Procedure: as §1

MS2 coat protein [3] = test: apparent KD of MS2 coat protein; higher = weaker reporter binding; details: Eterna round: R101
Procedure: as §1

Sequence | apparent KD of MS2 coat protein (MS2 coat protein [2]; input ligand: FMN 200 uM) | apparent KD of MS2 coat protein (MS2 coat protein [2]; input ligand: none) | apparent KD of MS2 coat protein (MS2 coat protein [3]; input ligand: FMN 200 uM) | apparent KD of MS2 coat protein (MS2 coat protein [3]; input ligand: none) | further results
UAAUAAUAAUAAUACGUCAAUUACAUGAGGAUCACCCAUGUAUAGGAUAUGCAGUGGAAUACACUGCAGAAGGAUACAAAGACG [Exclusion NG 3/3-B1] |  |  |  |  | apparent KD of MS2 coat protein (MS2 coat protein [1]; input ligand: FMN 200 uM): 22.8 nM; apparent KD of MS2 coat protein (MS2 coat protein [1]; input ligand: none): 19.6 nM
GAUACAUAGCAAGGAUAUCCACAUGAGGAUCACCCAUGUGCGUAAUCUGGGCGGUGGAAGAAAGUGGAGAAGGUGUUAGGUUGA [Atia] |  |  |  |  | apparent KD of MS2 coat protein (MS2 coat protein [1]; input ligand: FMN 200 uM): 106 nM; apparent KD of MS2 coat protein (MS2 coat protein [1]; input ligand: none): 64.2 nM
ACAUAAUGGUGAGGAUAUGCACAGGAUCACCGUGUAGAAGGCAUCAGGUAGAAGGUGCAGAGGAUCACCCUGUAAGGAUAUAUC [pwkr2 ssNG1 DX.19] | 94.6 nM | 562 nM |  |  | 
GCUCUCACUUGAGGAUAUCGAGUGGAUAACACUCGAGAAGGCAGGGAAACCUGAGGAUCACCCAGGUAACUGGAAAGAGAGCAA [Same State NG1 - A3C, U17G Submission 5D] | 20.4 nM | 31.8 nM |  |  | 
AAGUUUUUACAAGGAUAUCAGUUGUUUAUAAAUUAAACAUGAGGAUCACCCAUGUAACAAAGGAGUGAGAAGGUGUGUUGGAAA [JR_SSNG2_Sub089] | 319 nM | 408 nM |  |  | 
UGGUACAUGGGAGGAUAUGGGUUGAUAACAUGAGGAUCACCCAUGUUAAAUAAGCCGAGAGGCUACUAGAAGGCCCAUGUACCU [#InverseDoubleMagnetSystem - JL SNG1 3.00 18] (puzzle (switch architecture): Same State NG 2) |  |  | 10.6 nM | 293 nM | 
GGGUACAUCGGAGGAUAUCAUGUAAAUACAUGAGGAUCACCCAUGUCGAUGGAGACAUAGGAGAUUGAGAAGGCCGAUGUACCG (puzzle (switch architecture): Same State NG 2) |  |  | 144 nM | 74 nM | 
CUAUUAUAUGUAGGAUAUGCAUAUUAUUAUUGUGCAGAAGGACAUGAGGAUCACCCAUGUAUAUUAUUAUUAUAUAUUAUAUAU (puzzle (switch architecture): Exclusion NG 1) |  |  | 11.8 nM | 16.5 nM | 
UGUAAAAUUGAUCCUGCAAGUACAUGAGGAUCACCCAUGUGCUAGGAUAUCGCUCAGCUAAAGACCGAGAAGGAGCACAAUGUA [Adiraat] |  |  |  |  | apparent KD of MS2 coat protein (MS2 coat protein [1]; input ligand: FMN 200 uM): 67.1 nM; apparent KD of MS2 coat protein (MS2 coat protein [1]; input ligand: none): 27.9 nM
UUGGUUCUCGUAGGAUAUGUAGGAUAUGCCUACAUGAGGAUCACCCAUGUUCGCAUGGCAGAAGGACAGAAGGACGAUCACCAU [pwkr ssNG2 2FMN +1F5.17] | 20.8 nM | 288 nM |  |  | 
CCUGACACUUGAGGAUAUGCUCAGGAAUACUGAGCAGAAGGCAGGAAAACCUGAGGAUCACCCAGGUAAGUCAGGAAUAAUAAA [Same State NG1 - A3C, U17G Submission 3A] | 17.2 nM | 20.7 nM |  |  | 
AGAAACUACGAGAAGGACAUGUGGUCCUUCAAAAAAAUGAGGAUCACCCAUGUAGGAUAUCGUAGUUUCAGGAUCGUGAGAUCA [salish99_ISLExNG1_x101 #HINGE] (puzzle (switch architecture): Inverted Small Loop Exclusion NG 1) |  |  | 9.58 nM | 30 nM | 
GCAGAAGGUGCGGAGGAUCACCCUGUAAGGAUAUGCAUUAGCAAGGAUAUACAGAGGAUCACCCUGUAGAAGGUGCACUACUCU [pwkr2 ssNG3 DX.1] | 1140 nM | 1430 nM |  |  | 
CUGGUGAUGUAAGGAUAUGCUGAGGAUAACUCAGCAGAAGGUACAUGAGGAUCACCCAUGUAAAUGAAAGAUAAUAAACACCAG [Excusion NG 1/16-B2] |  |  |  |  | apparent KD of MS2 coat protein (MS2 coat protein [1]; input ligand: FMN 200 uM): 30.9 nM; apparent KD of MS2 coat protein (MS2 coat protein [1]; input ligand: none): 15.9 nM
GAGCUGCUCUGAGGAUAUGGGUUUAUAAGGACGGGCACGCCCGACAUGAGGAUCACCCAUGUCUACCAGAAGGCAGAAAAGUUC [Mamain] | 394 nM | 171 nM |  |  | 
GGUUGUUACGCAGGAUAUUGCCAACAGGCAGUGGGAUAUCCGAAAGGAGAAGGUUCGCCAACAGGCGAGAAGGGCGGGUUAACC [pwkr exNG2 2xF7 2FMN.10.7] |  |  |  |  | apparent KD of MS2 coat protein (MS2 coat protein [1]; input ligand: FMN 200 uM): 94 nM; apparent KD of MS2 coat protein (MS2 coat protein [1]; input ligand: none): 400 nM
GGAGAUACAUGAGGAUCACCCAUGUAGGAUAUCGGGCCCAUACCCGGCGAAAGCCGGGUAUGGGCCGAGAAGGGCGUACACACC [#LOL-5] (puzzle (switch architecture): Small Loop Exclusion NG 3) |  |  | 7.47 nM | 8.26 nM | 
AAAAAUUCUUAAGGAUAUGACUCCGAAACGGAGUCAGAAGGUGAGGAUCACCCACCUAGCUCAGCGUCGAAAGACGCUGAGCAA [#SharedSequence ExNG1 - 28] (puzzle (switch architecture): Exclusion NG 1) |  |  | 12 nM | 10.9 nM | 

Sequence | apparent KD of MS2 coat protein (MS2 coat protein [2]; input ligand: FMN 200 uM) | apparent KD of MS2 coat protein (MS2 coat protein [2]; input ligand: none) | apparent KD of MS2 coat protein (MS2 coat protein [3]; input ligand: FMN 200 uM) | apparent KD of MS2 coat protein (MS2 coat protein [3]; input ligand: none) | further results
AAUAAACAAUAAAAGAGUCCACGAAACUUCUGAGGAUCACCCAGAAGGGCUGAGGUAAUACCUCAGCAGGAUAUGGACGUGGAC [#SharedSequence IExNG# - 1] (puzzle (switch architecture): Inverted Exclusion NG 3) |  |  | 5.09 nM | 5 nM | 
CACGUCCUCACAGGAUAUGCUGGACUUUGUCCAGCAGAAGGGUGAACAUGAGGAUCACCCAUGUAAAGGACGUGUAUAUUUAAU [Denovo 23] | 72.5 nM | 587 nM |  |  | 
CAUGUCCUCACAGGAUAUGCUGGACUUUGUCCAGCAGAAGGGUGAACAUGAGGAUCACCCAUGUAAUGGACAUGUAUAUUUAAG [Mat - Same State NG 1 - Eli mod - D98] | 49.4 nM | 902 nM |  |  | 
GCUUGCGACGCAGGAUAUGGGUGCCUGCACACGAGGAUCACCCGUGUAGAGGAACGGAUUACGUCUCAGAAGGGCGUGGCAGGC [United States 4 - Jieux - Same State NG 2] | 21.8 nM | 88.9 nM |  |  | 
AAAUAACUUGAAGGAUAUGACCCUCGAGGUGACUAAAAGUCACCUCGAGGGUCAGAAGGUCGAGGAUCACCCGACCAAGUGAAA [#SharedSequence SLExNG1: 9] (puzzle (switch architecture): Small Loop Exclusion NG 1) |  |  | 13.3 nM | 9.17 nM | 
AAAUGAUAUCAGAAGGGCUCCAGCAAAGCUGGAGCAGGAUAUGAGGAUCACCCAUAUCACCUGACGGUCGAAACGACCGUCAGG [#SharedSequence - IExNG1: 7-1] (puzzle (switch architecture): Inverted Exclusion NG 1) |  |  | 62.1 nM | 15.5 nM | 
AACCUGACAUAAUAAUGUAGAAAUACAUGAGGAUCACCCAUGUAGGAUAUGCAGUGGAAUACACUGCAGAAGGACAUAGUCAGG [Exclusion NG 3/8-B1] |  |  |  |  | apparent KD of MS2 coat protein (MS2 coat protein [1]; input ligand: FMN 200 uM): 21.9 nM; apparent KD of MS2 coat protein (MS2 coat protein [1]; input ligand: none): 14.8 nM
GCAGAAGGUGCGGAGGAUCACCCUGUAAGGAUAUGCAUUAGCAAGGAUAUACAGAGGAUCACCCUGUAGAAGGUGCACUUCUGC [pwkr2 ssNG3 DX.9] | 1310 nM | 897 nM |  |  | 
UUAUGAGCGAUAGGAUAUACUGAGAUUGAAUGGGUAGAAGGAUCAAUCGUGUGGAAGACAUGAGGAUCACCCAUGUUACGGGCC [SameState #75 NG1] | 510 nM | 221 nM |  |  | 
GGAGACCUCACAGGAUAUGCUGGACUUUGUCCAGCAGAAGGGUGACUAACAUGAGGAUCACCCAUGUAGGUCUCCAAAUUUAAU [Denovo 58] | 631 nM | 40.8 nM |  |  | 
CGCUAUGAUGGUUGUAAUAGAGCAUAGGAUAUGCUUGUACAUGAGGAUCACCCAUGUUAUAUUUUGCAGAAGGGUGCAUUUGCG [JR #DistanceFar #Hairpin #NP SLSSNG3 Sub073] (puzzle (switch architecture): Small Loop Same State NG 3) |  |  | 30.1 nM | 59.9 nM | 
GGAGCACACAUUAACAUGAGGAUCACCCAUGUCAAAAGACAUGAGGAUAUGGAUCCGAAAAGGAUCCAGAAGGCAUGGUGCUCC [EliMod 8 - Jieux - Same State NG 3] | 35.1 nM | 598 nM |  |  | 
AAAUAAAUUGAAGGAUAUGACCCUCGAGGUGACUAAAAGUCACCUCGAGGGUCAGAAGGUCGAGGAUCACCCGAUCUAAAUAAA [#SharedSequence SLExNG1: 1-1] (puzzle (switch architecture): Small Loop Exclusion NG 1) |  |  | 13.1 nM | 8.27 nM | 
GGAGGAGGAUAAGGAUAUAACAUGAGGAUCACCCAUGUGGAGGAGGAGGAGGAGGAGGAGGAGGGUUAGAAGGUAUGGAGGAGG [First attempt] (puzzle (switch architecture): Exclusion NG 2) |  |  | 11 nM | 16.2 nM | 
GGAUAACAUGUAGGAUAUCCAGCAUUGACCAUCGGAGAAGGACAUGAGGAUCACCCAUGUACCGAUACAAUGGAAUAAGGGAAU [xclu_NG1_cac3] |  |  |  |  | apparent KD of MS2 coat protein (MS2 coat protein [1]; input ligand: FMN 200 uM): 17.9 nM; apparent KD of MS2 coat protein (MS2 coat protein [1]; input ligand: none): 15.4 nM
CUGCAAUUCUUAGGAUAUGCUCAGGAAUACUGAGCAGAAGGAAGAUAUACCUGAGGAUCACCCAGGUUAAACUGGAGCAGAAUA [Same State NG1 - A3C, U17G Submission 8A] | 32.2 nM | 181 nM |  |  | 
GCGUCCCGCAGAGGAUAUGUUGUUCGGCCUACAUGAGGAUCACCCAUGUCAAAGGGCUGAUCCCAACAGAAGGCUGAAGGAUAC [Qumarera] | 8.73 nM | 64 nM |  |  | 
